Ends that are not written are not given here.
System: Dextran Sodium Sulphate (DSS)-induced colitis
Assay: 10-Day Dextran Sodium Sulphate (DSS)-induced colitis model in the mouse
Type: in vivo, Male C57BL/6 mice
Set-up: key to Disease Activity Index (DAI): clinical DAI score, daily maximum 12
Settings: for Disease Activity Index (DAI): mean ± SEM, n=10; for inhibition of the disease activity index (DAI) / additional DAI score without the change in body weight (only stool consistency and rectal bleeding): vs. vehicle; for additional DAI score without the change in body weight (only stool consistency and rectal bleeding): oral, 10-day treatment
Source text: 10-Day Dextran Sodium Sulphate (DSS)-Induced Colitis Model in the Mouse
The aim of the following study was to determine the anti-inflammatory activity of human beta defensin 2 in an acute (10-days) model of inflammatory bowel disease (colitis) induced by oral dextran sodium sulphate (DSS) administration in the mouse.
Study design: animals were divided into 5 experimental groups. Each group consisted of 10 males: Group A: Treated with Control vehicle (PBS) p.o. twice daily. Group B: Treated with methylprednisolone (1 mg/kg p.o. twice daily). Group C: Treated with hBD2 (0.05 mg/kg p.o. twice daily). Group D: Treated with hBD2 (0.5 mg/kg p.o. […]). Group E: Treated with hBD2 (5 mg/kg p.o. […]). Animal allocation to all experimental groups was done in a randomized manner. A maximum of 5 mice were housed in each cage (as per Directive 86/609/EEC). All animals were weighed on their arrival at the laboratory and prior to the administration of the test items.
The control vehicle and hBD2 were administered orally with the use of a sterile cannula in a dosing volume of 10 ml/kg body weith. The animals of all groups recieved 2 doses daily (at 9.00 h and 17.00 h) of the corresponding test item (test, reference or vehicle) for 10 consecutive days (experimental days 1-10).
Colitis was induced in mice by supplementing their drinking water with DSS 2% for 7 days. On Day 1 all mice were weighed and marked according to their experimental groups. The drinking bottle of each cage was filled with the DSS solution, making sure all bottle lids were mounted properly and that none were congested. On Day 3 any remaining solution in the bottles was emptied and refilled with fresh DSS solution. This procedure was repeated again on Day 5. On Day 8 any remaining solution was discarded and replaced with autoclaved water. Animals were sacrificed 2 days later on Day 10.
Daily clinical assessment of DSS-treated animals was carried out, with the calculation of a validated clinical Disease Activity Index (DAI) ranging from 0 to 4 according to the following parameters: stool consistency, presence or absence of rectal bleeding and weight loss:
Bodyweight loss was calculated as the percent difference between the original bodyweight (Day 1) and the actual bodyweight on each experimental day (2-10). The appearance of diarrhoea is defined as mucus/faecal material adherent to anal fur. Rectal bleeding is defined as diarrhoea containing visible blood/mucus or gross rectal bleeding. The maximum score of the DAI each day is 12.
On day 10, two hours after the last administration of control vehicle, hBD2 or prednisolone, the animals were killed by an overdose of anaesthetic. Their colons were removed and their length and weight measured after exclusion of the caecum. Two sections (proximal and distal) of colon were taken from each animal and preserved in neutral buffered formalin for subsequent histological analysis (haematoxylin and eosin staining) according to the following scoring system:
Description Score: No changes observed (0). Minimal scattered mucosal inflammatory cell infiltrates, with or without minimal epithelial hyperplasia (1). Mild scattered to diffuse inflammatory cell infiltrates, sometimes extending into the submucosa and associated with erosions, with minimal to mild epithelial hyperplasia and minimal to mild mucin depletion from goblet cells (2). Mild to moderate inflammatory cell infiltrates that were sometimes transmural, often associated with ulceration, with moderate epithelial hyperplasia and mucin depletion (3). Marked inflammatory cell infiltrates that were often transmural and associated with ulceration, with marked epithelial hyperplasia and mucin depletion (4). Marked transmural inflammation with severe ulceration and loss of intestinal glands (5). […]

[1] = prednisolone 1 mg/kg p.o. twice daily (Group B), day 10

With “Human beta defensin 2 (GIGDPVTCLKSGAICHPVFCPRRYKQIGTCGLPGTKCCKKP; ends and bridges not checked; cysteine pairing not given here; listed as Homo sapiens) [hBD2, human beta defensin 2 (hBD2]” the “Disease Activity Index (DAI)” value (hBD2 0.05 mg/kg p.o., Day 6, max score 12, P < 0.01 vs. vehicle) was 1.2 ± 0.59, the “Disease Activity Index (DAI)” value (hBD2 0.05 mg/kg p.o., Day 7, P < 0.05 vs. vehicle) was 1.9 ± 0.66 and the “Disease Activity Index (DAI)” value (hBD2 0.05 mg/kg p.o., Day 8, P < 0.001 vs. vehicle) was 4.5 ± 0.86. For the same compound, the “Disease Activity Index (DAI)” value (hBD2 0.05 mg/kg p.o., Day 9, P < 0.001 vs. vehicle) was 5.6 ± 0.54, the “Disease Activity Index (DAI)” value (hBD2 0.05 mg/kg p.o., Day 10, P < 0.05 vs. vehicle) was 8 ± 0.73 and the “Disease Activity Index (DAI)” value (hBD2 0.5 mg/kg p.o., Day 6, P < 0.05 vs. vehicle) was 1.7 ± 0.67. For the same compound, the “Disease Activity Index (DAI)” value (hBD2 0.5 mg/kg p.o., Day 9, P < 0.05 vs. vehicle) was 7.1 ± 0.61, the “Disease Activity Index (DAI)” value (hBD2 0.5 mg/kg p.o., Day 10, P < 0.01 vs. vehicle) was 7.3 ± 0.7 and the “Disease Activity Index (DAI)” value (hBD2 5 mg/kg p.o., Day 3, P < 0.05 vs. vehicle) was 0.5 ± 0.27. The “Disease Activity Index (DAI)” value (hBD2 5 mg/kg p.o., Day 4, P < 0.05 vs. vehicle) was 0.6 ± 0.27, the “Disease Activity Index (DAI)” value (hBD2 5 mg/kg p.o., Day 5, P < 0.05 vs. vehicle) was 1.8 ± 0.76 and the “Disease Activity Index (DAI)” value (hBD2 5 mg/kg p.o., Day 6, P < 0.05 vs. vehicle) was 1.4 ± 0.6. For the same compound, the “Disease Activity Index (DAI)” value (hBD2 5 mg/kg p.o., Day 7, P < 0.05 vs. vehicle) was 2.1 ± 0.96, the “Disease Activity Index (DAI)” value (hBD2 5 mg/kg p.o., Day 8, P < 0.01 vs. vehicle) was 5.4 ± 0.87 and the “Disease Activity Index (DAI)” value (hBD2 5 mg/kg p.o., Day 9, P < 0.001 vs. vehicle) was 5.2 ± 0.76. The “Disease Activity Index (DAI)” value (hBD2 5 mg/kg p.o., Day 10, P < 0.001 vs. vehicle) was 5.6 ± 0.48, the “inhibition of the disease activity index (DAI)” value (hBD2 at three dose levels (0.05, 0.5, 5 mg/kg) via the oral route) was “significant inhibition” and the “histological damage in the proximal colon” value (hBD2 twice daily, at 3 dose levels, p.o., day 10) was “significant reduction”. The “histological damage in the distal colon” value (hBD2 twice daily, at the intermediate and high dose levels, p.o., day 10) was “significant reduction”, the “body weight compared to the control group” value (high dose of the test item (5 mg/kg p.o.), day 10, P<0.05) was “significant increase” and the “additional DAI score without the change in body weight (only stool consistency and rectal bleeding)” value was “very significant anti-inflammatory activity”.

For `C[C@H]1C[C@@H]2[C@H]([C@@H](O)C[C@@]3(C)[C@H]2CC[C@]3(O)C(=O)COC(=O)CCC(=O)O)[C@@]2(C)C=CC(=O)C=C12` [Methylprednisolone 21-hemisuccinate, reference compound], the “Disease Activity Index (DAI)” value (Prednisolone 1 mg/kg p.o. twice daily, Day 6 as printed, P < 0.01 vs. vehicle) was 7 ± 0.33, the “additional DAI score without the change in body weight (only stool consistency and rectal bleeding)” value was “very significant anti-inflammatory activity” and the “histological injury induced by DSS in the distal colon” value [1] was “significantly reduced”. For the same compound, the “histological injury induced by DSS in the proximal colon” value [1] was “significantly reduced”, the body weight (prednisolone 1 mg/kg p.o. twice daily (group B), from day 2 until the end of the study) was “significant decrease” and the “inhibition of the disease activity index (DAI)” value (reference item prednisolone 1 mg/kg p.o. twice daily) was “significant inhibition”.

— patent US20130172235A1, “ORAL TREATMENT OF INFLAMMATORY BOWEL DISEASE” (Novozymes A/S, priority 2011, published 2013)
